Source: article PMC3676455
Changes are numbered by the printed parent chain.

Tests used:
Assay in all cases: fluorescence anisotropy
[1] = biological target: T1, [2Fe-2S]-IscR wild-type (Escherichia coli, UniProt P0AGK8 1-162)
T1 sequence: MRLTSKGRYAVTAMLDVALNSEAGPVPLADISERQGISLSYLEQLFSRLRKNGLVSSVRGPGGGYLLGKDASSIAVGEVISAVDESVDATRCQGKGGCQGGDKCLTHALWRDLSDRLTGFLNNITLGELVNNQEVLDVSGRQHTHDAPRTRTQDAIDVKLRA

[2] = biological target: T2, [2Fe-2S]-IscR-R59A (Escherichia coli, UniProt P0AGK8 1-162, R59A)
T2 sequence: T1 sequence with R59A

[3] = biological target: T3, [2Fe-2S]-IscR-E43A (Escherichia coli, UniProt P0AGK8 1-162, E43A)
T3 sequence: T1 sequence with E43A

[4] = biological target: T4, [2Fe-2S]-IscR-S40A (Escherichia coli, UniProt P0AGK8 1-162, S40A)
T4 sequence: T1 sequence with S40A

B1: iscRB 30-mer (type 1) (dsDNA)
DNA 1: AAATAGTTGACCATTTTACTCGGGAATGTC
DNA 2: GACATTCCCGAGTAAAATGGTCAACTATTT
B1 was tested, and the Kd [1] was 24 ± 1 nM, the binding result [2] was “no binding” and the Kd [3] was 21 ± 1 nM. It also gave a Kd [4] of 94 ± 3 nM.

B2: hya 30-mer (type 2) (dsDNA)
DNA 1: ATAAATCCACACAGTTTGTATTGTTTTGTG
DNA 2: CACAAAACAATACAAACTGTGTGGATTTAT
B2: binds [3].

B3: iscRBcc (symmetrical CC) (dsDNA)
DNA 1: B1 DNA 1 with T7C, T8C
DNA 2: B1 DNA 2 with A23G, A24G
B3: binds [1].
